Experimental data from PMC2190708 (Nucleic Acids Research, 2007).

B1: λ-Pase (Escherichia phage Lambda) (protein)
chain: MRYYEKIDGSKYRNIWVVGDLHGCYTNLMNKLDTIGFDNKKDLLISVGDLVDRGAENVECLELITFPWFRAVRGNHEQMMIDGLSERGNVNHWLLNGGGWFFNLDYDKEILAKALAHKADELPLIIELVSKDKKYVICHADYPFDEYEFGKPVDHQQVIWNRERISNSQNGIVKEIKGADTFIFGHTPAVKPLKFANQMYIDTGAVFCGNLTLIQVQGEGA

Tests used:
[1] = target: T1, CthPnkp (Acetivibrio thermocellus, UniProt A3DJ38); test: p-nitrophenol release; format: biochemical; conditions: Tris-HCl pH 7.0, 0.5 mM MnCl2, data not shown
T1 sequence (A3DJ38 1-870): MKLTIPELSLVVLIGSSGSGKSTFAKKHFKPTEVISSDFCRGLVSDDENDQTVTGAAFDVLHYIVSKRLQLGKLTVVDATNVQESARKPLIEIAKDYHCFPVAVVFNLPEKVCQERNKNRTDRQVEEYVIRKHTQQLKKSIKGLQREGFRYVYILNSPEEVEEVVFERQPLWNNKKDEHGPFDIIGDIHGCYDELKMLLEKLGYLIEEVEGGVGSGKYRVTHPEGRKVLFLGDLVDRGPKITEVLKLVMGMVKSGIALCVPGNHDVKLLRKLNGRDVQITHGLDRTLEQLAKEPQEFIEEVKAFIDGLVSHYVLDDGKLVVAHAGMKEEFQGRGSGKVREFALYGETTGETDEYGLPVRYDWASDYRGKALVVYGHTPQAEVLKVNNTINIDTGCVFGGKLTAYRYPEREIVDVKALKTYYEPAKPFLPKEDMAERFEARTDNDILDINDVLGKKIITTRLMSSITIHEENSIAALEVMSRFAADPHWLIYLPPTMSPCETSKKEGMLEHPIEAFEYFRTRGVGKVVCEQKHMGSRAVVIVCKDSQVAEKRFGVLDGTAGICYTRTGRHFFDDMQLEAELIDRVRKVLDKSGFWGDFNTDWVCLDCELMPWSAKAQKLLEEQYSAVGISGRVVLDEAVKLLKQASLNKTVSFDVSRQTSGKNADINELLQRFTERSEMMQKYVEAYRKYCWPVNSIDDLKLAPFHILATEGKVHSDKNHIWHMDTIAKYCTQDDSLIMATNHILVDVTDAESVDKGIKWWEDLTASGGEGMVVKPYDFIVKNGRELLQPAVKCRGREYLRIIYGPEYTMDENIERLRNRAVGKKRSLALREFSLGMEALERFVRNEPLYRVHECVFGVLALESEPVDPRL

[2] = substrate: O=[N+]([O-])c1ccc(OP(=O)(O)Oc2ccc([N+](=O)[O-])cc2)cc1; test: purified protein; conditions: Mn2+; exact conditions of titration not given, data not shown
[3] = substrate: O=[N+]([O-])c1ccc(OP(=O)(O)O)cc1; test: purified protein; conditions: Mn2+; exact conditions of titration not given, data not shown

| Molecule | Km [1] | Km [2] | Km [3] |
| --- | --- | --- | --- |
| O=[N+]([O-])c1ccc(OP(=O)(O)c2ccccc2)cc1 [compound ②, p-nitrophenyl phenylphosphonate] | 67 mM | – | – |
| B1 | – | 10 ± 1.6 mM | 5.0 ± 0.1 mM |
